Assay results published in IntAct's records for PubMed 17129783.

B1: Kinetochore protein ndc-80 (Caenorhabditis elegans), Q17635 (parent)
chain: MFGDRRKTGGLNLNGRASIAITPTKRFTDYTGSTSVRKTDARPSLSQPRVSLFNTKNSSVAPRDVKSLVSLNGSKIYNFLVEYESSDAPSEQLIMKPRGKNDFIACFELIYQHLSKDYEFPRHERIEEEVSQIFKGLGYPYPLKNSYYQPMGSSHGYPHLLDALSWLIDIIRINSAVSEDTQNILFGDFMEQGKAQEKTLNYAWMTSTFRDYTNDRKAAENPSSSYWDDTKHRLRKYFEQSNEFEDMTKTAASALEMLNYECDEIEADKGNEASLKEEISRIRDDIRKAKDYLEQNLHVKQHMEKELAMVKSEQEEKISENEKVQKMVDDLKNKIELQKQIHGLTGKEVRQMNLDNNKDKEVVLEIQSELDRLSKETWKLKDEDFFKEQKSKFIHLAEQIMKILSGLNIQMNLEPLRAPTNERDLKDYWETLNKIWVPEISRQLHQRKLELETEQSRFSNKAVTAEERIQIQSETLCEAKKNEAREERIRRNERDSWKDARKHIEQRYEQLLNEKEVLLKQMKLDGSLEKEIEDETARMSATGEEHIQKRSQLEAGIRQILDLMVVEIAEIENKKIGFHVQCAGIEKAVL
partner: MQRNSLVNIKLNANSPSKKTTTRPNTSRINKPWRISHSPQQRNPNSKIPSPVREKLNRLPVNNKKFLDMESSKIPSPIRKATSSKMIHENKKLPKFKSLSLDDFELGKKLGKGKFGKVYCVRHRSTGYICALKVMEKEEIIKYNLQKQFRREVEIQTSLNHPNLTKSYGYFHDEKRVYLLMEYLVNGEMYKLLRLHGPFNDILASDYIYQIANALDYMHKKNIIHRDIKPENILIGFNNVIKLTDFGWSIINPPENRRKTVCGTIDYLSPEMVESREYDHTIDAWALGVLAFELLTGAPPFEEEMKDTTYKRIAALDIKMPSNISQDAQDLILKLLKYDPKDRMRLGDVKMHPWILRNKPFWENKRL

Variants of: B1
Settings: with aurk_yeast IPL1, P38991

Variant | effect of a mutation on the interaction
MFGDRRKAGGLNLNGRAAIAITPTKRFTDYTGSTSVRKTDARPALSQPRVALFNTKNSSVAPRDVKSLVSLNGSKIYNFLVEYESSDAPSEQLIMKPRGKNDFIACFELIYQHLSKDYEFPRHERIEEEVSQIFKGLGYPYPLKNSYYQPMGSSHGYPHLLDALSWLIDIIRINSAVSEDTQNILFGDFMEQGKAQEKTLNYAWMTSTFRDYTNDRKAAENPSSSYWDDTKHRLRKYFEQSNEFEDMTKTAASALEMLNYECDEIEADKGNEASLKEEISRIRDDIRKAKDYLEQNLHVKQHMEKELAMVKSEQEEKISENEKVQKMVDDLKNKIELQKQIHGLTGKEVRQMNLDNNKDKEVVLEIQSELDRLSKETWKLKDEDFFKEQKSKFIHLAEQIMKILSGLNIQMNLEPLRAPTNERDLKDYWETLNKIWVPEISRQLHQRKLELETEQSRFSNKAVTAEERIQIQSETLCEAKKNEAREERIRRNERDSWKDARKHIEQRYEQLLNEKEVLLKQMKLDGSLEKEIEDETARMSATGEEHIQKRSQLEAGIRQILDLMVVEIAEIENKKIGFHVQCAGIEKAVL [T8A;S18A;S44A;S51A] | disrupting interaction
